Results as given in patent publication US20150352233A1.

Molecular target: Membrane Preparation Recombinant Human GLP-1 (GLP-1R) (human) (UniProt P43220)

Work on “non-labeled exendin4 (peptide; other documents disagree on this pair)” yielded an IC50 of 190 pM.
